Earlier results in publication PMC4067134.

Legend:
[1] = target: integrin αIIbβ3 (Homo sapiens) (UniProt P08514)
[2] = target: integrin β3 (Homo sapiens) (UniProt P05106)
Chain of UniProt P05106 (P05106 27-718): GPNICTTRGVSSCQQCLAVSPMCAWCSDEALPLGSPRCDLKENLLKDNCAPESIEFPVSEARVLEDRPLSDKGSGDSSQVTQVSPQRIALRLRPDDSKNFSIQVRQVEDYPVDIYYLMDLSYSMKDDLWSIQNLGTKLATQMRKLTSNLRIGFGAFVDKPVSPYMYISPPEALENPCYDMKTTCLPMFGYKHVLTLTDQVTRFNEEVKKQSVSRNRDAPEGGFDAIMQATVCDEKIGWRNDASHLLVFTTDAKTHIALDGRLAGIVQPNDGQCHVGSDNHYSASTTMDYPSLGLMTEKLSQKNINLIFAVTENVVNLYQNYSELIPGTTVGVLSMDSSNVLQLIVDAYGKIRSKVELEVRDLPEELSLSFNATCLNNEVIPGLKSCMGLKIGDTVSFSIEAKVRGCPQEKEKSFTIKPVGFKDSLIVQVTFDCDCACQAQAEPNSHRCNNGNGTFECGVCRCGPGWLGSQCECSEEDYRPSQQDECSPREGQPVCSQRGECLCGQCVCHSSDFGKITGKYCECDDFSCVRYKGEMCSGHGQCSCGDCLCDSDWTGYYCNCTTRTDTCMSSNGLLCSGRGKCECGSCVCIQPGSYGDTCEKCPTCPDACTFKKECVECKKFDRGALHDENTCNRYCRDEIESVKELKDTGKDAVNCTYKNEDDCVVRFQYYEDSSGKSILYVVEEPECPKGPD

ERp5 (from UniProt Q15084)
Kd [1]: 7 µM
Kd [2]: 6.9 µM
